Test results from patent CN111544600A (UNIV CHINA PHARMA, dated 2020).

Target: T1, 人DLL4抗原 (human, UniProt Q9NR61 27-524, limits assumed)
T1 construct: Coated at 1 μg/mL; also called Delta like 4
Assay: ELISA, DLL4 antigen coated on plate, HRP secondary antibody, OD450-OD630

T1 sequence (Q9NR61 27-524 limits assumed): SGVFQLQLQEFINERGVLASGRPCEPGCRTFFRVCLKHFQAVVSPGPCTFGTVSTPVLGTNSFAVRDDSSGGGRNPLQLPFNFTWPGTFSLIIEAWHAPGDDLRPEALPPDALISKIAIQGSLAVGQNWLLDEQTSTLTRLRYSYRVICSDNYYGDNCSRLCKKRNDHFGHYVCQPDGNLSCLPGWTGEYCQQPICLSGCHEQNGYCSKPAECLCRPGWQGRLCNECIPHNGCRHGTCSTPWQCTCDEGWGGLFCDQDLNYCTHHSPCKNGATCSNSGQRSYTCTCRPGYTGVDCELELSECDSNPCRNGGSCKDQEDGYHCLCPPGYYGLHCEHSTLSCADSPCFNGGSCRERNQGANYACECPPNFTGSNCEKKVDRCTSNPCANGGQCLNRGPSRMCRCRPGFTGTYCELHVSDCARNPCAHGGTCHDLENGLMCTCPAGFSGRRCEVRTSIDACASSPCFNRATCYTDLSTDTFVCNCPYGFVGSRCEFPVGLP

B1: 抗人DLL4人源化抗体H3L2 (antibody, V domains shown)
VH: QVQLVQSGAEVKKPGSSVKVSCKASGYTFSGYWMQWIKQAPGQGLEWIGAIYPGDGDTRYTQKFKGRATLTADKSTSTAYMELSSLRSEDTAVYYCAGGNFFFDYWGQGTLVTVSS
VL: EIVITQSPDFQSVTPKEKVTITCSVSSSISSSYLHWYQQKPDQSPKPWIYGTSNLASGVPSRFSGSGSGTDYTLTINSLEAEDAATYYCQQWSSSPLTFGQGTKLEIKV
**Q.** With B1 as the binder, how does the EC50 read?
**A.** 49.2 nM
